According to paper PMC3675161 (Biochemistry, 2013):

Target: the molecule itself
Assay: SEC

B1: cytoplasmic portion of selenoprotein S with its native selenocysteine (cSelS) (domain or fragment, human, UniProt Q9BQE4 52-189, looked up)
chain: SARLRALRQRQLDRAAAAVEPDVVVKRQEALAAARLKMQEELNAQVEKHKEKLKQLEEEKRRQKIEMWDSMQEGKSYKGNAKKPQEEDSPGPSTSSVLKRKSDRKPLRGGGYNPLSGEGGGACSWRPGRRGPSSGGUG
modifications: selenocysteine at position 188
- stoichiometry N: 2
